Laboratory results as given in patent US20060263331A1, “Therapeutic use of tumor necrosis factor-alpha mutein” (priority 2002, published 2006).

Columns and labels:
malignant tumors = assay: Clinical monotherapy of rhTNFm1, all malignant tumors (Total); type: in vivo, human; details: Total of tumor indications, 141 patients
Source text: (§1) Patients were selected based on the following criteria: i) measurable, objective tumor; ii) Karnofsky performance status (KPS)≧60; iii) age 18-75; iv) major organs in basically normal condition; v) no chemotherapy, radiotherapy and biologic therapy within the last month; vi) predicted ≧3 mon. survival; and vii) with patient's informed consent signed.
(§2) Patients were excluded based on the following criteria: i) with history of allergic reactions to TNF or its derivatives; ii) pregnant or lactating women; iii) major organs with obvious damages or malfunction; iv) in ≧38° C. fever; v) with obvious tendency to haemorrhage; vi) with history of hypo- or hypertension; vii) with serious albuminemia; and viii) with strong tendency of disobedience or resistance.
(§3) Patients were removed from the evaluation if any of the following conditions apply: i) treatment was not completed according to the protocol; ii) incomplete records; and iii) treatment using cancer therapies not in the protocol. However, patients who withdrew due to adverse reactions to the therapy were still included in the evaluation.
(§4) The results of the treatment of tumors were evaluated based the following criteria: i) complete response (CR)—complete disappearance of observable pathological changes for at least 4 weeks; ii) partial response (PR)—reduction by ≧50% in tumor size measured by the product of the maximum circular and vertical dimensions for at least 4 weeks; iii) minimum response (MR)—reduction by >25% but <50% in tumor size measured by the product of the maximum circular and vertical dimensions for at least 4 weeks; iv) stabilized (SD)—reduction by ≦25% but without increase by >25% in tumor size measured by the product of the maximum circular and vertical dimensions for at least 4 weeks; and progression (PD): increase by >25% in tumor size in one or more sites.
(§5) Patients rested on day 1 and 2. The treatment cycle was 3-4 weeks.

[1] = in vivo
Description: Patients with the following malignancy: malignant lymphoma, lung cancer, melanoma, breast cancer, liver cancer, kidney cancer, colon cancer, pleural effusion and ascites were treated with a monotherapy of the recombinant protein rhTNFm1 described above.
Patients were treated with rhTNFm1 at 600,000-900,000 unit/m^2 (about 1-50 μg/m^2 depending on the specific bioactivity of a particular lot) per day, 5 times a week (day 3-7) via i.v. injection. Patients rested on day 1 and 2. The treatment cycle was 3-4 weeks.

non-Hodgkin's lymphoma = assay: Clinical monotherapy of rhTNFm1, non-Hodgkin's lymphoma; type: in vivo, human; details: for Response Rate (%) CR / Response Rate (%) CR + PR / Response Rate (%) PR / Efficacy CR / Efficacy MR / Efficacy PD / Efficacy PR / Efficacy SD: Non-Hodgkin's, monotherapy; for Efficacy CR / Efficacy MR / Efficacy PD / Efficacy PR / Efficacy SD: patient count
Source text: as §1, §2, §3, §4, §5
(§6) Table II summaries results of the treatment of patients with malignant lymphoma, classified according to Hodgkin's disease and non-Hodgkin's lymphoma. Within each of category of lymphoma, patients were further classified into two groups: chemo-naïve and chemo-refractory. The chemo-naïve patients were patients who had never been treated with any anti-cancer agent previously whereas chemo-refractory patients were ones who failed treatment with one or more anti-cancer agent.

Malignant Lymphoma = assay: Clinical monotherapy of rhTNFm1, malignant lymphoma; type: in vivo, human; details: 71 patients
Source text: as §1, §2, §3, §4, §5, §6

Hodgkin's disease = assay: Clinical monotherapy of rhTNFm1, Hodgkin's disease; type: in vivo, human; details: for Efficacy CR / Efficacy MR / Efficacy PD / Efficacy PR / Efficacy SD: patient count
Source text: as §1, §2, §3, §4, §5, §6

[2] = Chemo-naïve Grade I & II, 4 patients
[3] = Chemo-naïve Grade III & IV, 5 patients
[4] = Chemo-naïve Grade I & II, 0 patients
[5] = Chemo-naïve Grade III & IV, 0 patients

B1: rhTNFm1: Recombinant human TNF-α mutant 1 expressed in E. coli; SEQ ID NO: 3 with N-terminal methionine (FIG. 1, 2) (protein)
chain: MRKRKPVAHVVANPQAEGQLQWLNRRANALLANGVELRDNQLVVPSEGLYLIYSQVLFKGQGCPSTHVLLTHTISRIAVSYQTKVNLLSAIKSPCQRETPEGAEAKPWYEPIYLGGVFQLEKGDRLSAEINRPDYLDFAESGQVYFGIIAQ
modifications: rhTNFm1 with Met
- Response Rate (%) CR (malignant tumors): 1.42%
- Response Rate (%) CR + PR (malignant tumors): 16.31%
- Response Rate (%) PR (malignant tumors): 14.89%
- Efficacy CR (malignant tumors; patient count): 2
- Efficacy MR (malignant tumors; patient count): 14
- Efficacy PD (malignant tumors; patient count): 29
- Efficacy PR (malignant tumors; patient count): 21
- Efficacy SD (malignant tumors; patient count): 75
- adverse effects compared to wild type TNF-α [1]: much fewer and weaker adverse effects
- duration of chill [1]: ≤ 30 min
- duration of chills [1]: no more than half an hour
- duration of fever [1]: no more than half an hour
- fever grade during the treatment [1]: Grade I
- highest body temperature during the treatment [1]: 37.2 °C
- patients with 3rd degree fever [1]: two
- patients with chills [1]: 23%
- patients with fever below the 2nd degree [1]: About 38%
- patients with mild chills [1]: 11%
- patients with slight chills [1]: 12%
- time of occurrence of chills after the administration [1]: ≤ 30 min
- time of occurrence of fever post administration [1]: 1 to 2 h
- adverse reactions during the treatment ([1]; iv): slight asthenia
- Response Rate (%) CR (non-Hodgkin's lymphoma; [2]): 0%
- Response Rate (%) CR + PR (non-Hodgkin's lymphoma; [2]): 75%
- Response Rate (%) PR (non-Hodgkin's lymphoma; [2]): 75%
- Response Rate (%) CR (non-Hodgkin's lymphoma; [3]): 0%
- Response Rate (%) CR + PR (non-Hodgkin's lymphoma; [3]): 60%
- Response Rate (%) PR (non-Hodgkin's lymphoma; [3]): 60%
- Response Rate (%) CR (non-Hodgkin's lymphoma; Chemo-naïve Total, 9 patients): 0%
- Response Rate (%) CR + PR (non-Hodgkin's lymphoma; Chemo-naïve Total, 9 patients): 66.67%
- Response Rate (%) PR (non-Hodgkin's lymphoma; Chemo-naïve Total, 9 patients): 66.67%
- Response Rate (%) CR (non-Hodgkin's lymphoma; Chemo-refractory, 56 patients): 3.57%
- Response Rate (%) CR + PR (non-Hodgkin's lymphoma; Chemo-refractory, 56 patients): 25%
- Response Rate (%) PR (non-Hodgkin's lymphoma; Chemo-refractory, 56 patients): 21.43%
- quality of life score after the treatment (non-Hodgkin's lymphoma; one NHL patient, before 50): 60
- KPS after the treatment (non-Hodgkin's lymphoma; one NHL patient, before 90): 90
- Efficacy CR (non-Hodgkin's lymphoma; [2]): 0
- Efficacy MR (non-Hodgkin's lymphoma; [2]): 1
- Efficacy PD (non-Hodgkin's lymphoma; [2]): 0
- Efficacy PR (non-Hodgkin's lymphoma; [2]): 3
- Efficacy SD (non-Hodgkin's lymphoma; [2]): 0
- Efficacy CR (non-Hodgkin's lymphoma; [3]): 0
- Efficacy MR (non-Hodgkin's lymphoma; [3]): 0
- Efficacy PD (non-Hodgkin's lymphoma; [3]): 0
- Efficacy PR (non-Hodgkin's lymphoma; [3]): 3
- Efficacy SD (non-Hodgkin's lymphoma; [3]): 2
- Efficacy CR (non-Hodgkin's lymphoma; Chemo-naïve Total, 9 patients): 0
- Efficacy MR (non-Hodgkin's lymphoma; Chemo-naïve Total, 9 patients): 1
- Efficacy PD (non-Hodgkin's lymphoma; Chemo-naïve Total, 9 patients): 0
- Efficacy PR (non-Hodgkin's lymphoma; Chemo-naïve Total, 9 patients): 6
- Efficacy SD (non-Hodgkin's lymphoma; Chemo-naïve Total, 9 patients): 2
- Efficacy MR (non-Hodgkin's lymphoma; Chemo-refractory, 56 patients): 7
- Efficacy PD (non-Hodgkin's lymphoma; Chemo-refractory, 56 patients): 10
- Efficacy PR (non-Hodgkin's lymphoma; Chemo-refractory, 56 patients): 12
- Efficacy SD (non-Hodgkin's lymphoma; Chemo-refractory, 56 patients): 25
- Response Rate (%) CR (Malignant Lymphoma): 2.82%
- Response Rate (%) CR + PR (Malignant Lymphoma): 28.17%
- Response Rate (%) PR (Malignant Lymphoma): 25.35%
- Efficacy CR (Malignant Lymphoma; patient count): 2
- Efficacy MR (Malignant Lymphoma; patient count): 8
- Efficacy PD (Malignant Lymphoma; patient count): 11
- Efficacy PR (Malignant Lymphoma; patient count): 18
- Efficacy SD (Malignant Lymphoma; patient count): 32
- Response Rate (%) CR (Hodgkin's disease; [4]): 0%
- Response Rate (%) CR + PR (Hodgkin's disease; [4]): 0%
- Response Rate (%) PR (Hodgkin's disease; [4]): 0%
- Response Rate (%) CR (Hodgkin's disease; [5]): 0%
- Response Rate (%) CR + PR (Hodgkin's disease; [5]): 0%
- Response Rate (%) PR (Hodgkin's disease; [5]): 0%
- Response Rate (%) CR (Hodgkin's disease; Chemo-naïve Total, 0 patients): 0%
- Response Rate (%) CR + PR (Hodgkin's disease; Chemo-naïve Total, 0 patients): 0%
- Response Rate (%) PR (Hodgkin's disease; Chemo-naïve Total, 0 patients): 0%
- Response Rate (%) CR (Hodgkin's disease; Chemo-refractory, 6 patients): 0%
- Response Rate (%) CR + PR (Hodgkin's disease; Chemo-refractory, 6 patients): 0%
- Response Rate (%) PR (Hodgkin's disease; Chemo-refractory, 6 patients): 0%
- Efficacy CR (Hodgkin's disease; [4]): 0
- Efficacy MR (Hodgkin's disease; [4]): 0
- Efficacy PD (Hodgkin's disease; [4]): 0
- Efficacy PR (Hodgkin's disease; [4]): 0
- Efficacy SD (Hodgkin's disease; [4]): 0
- Efficacy CR (Hodgkin's disease; [5]): 0
- Efficacy MR (Hodgkin's disease; [5]): 0
- Efficacy PD (Hodgkin's disease; [5]): 0
- Efficacy PR (Hodgkin's disease; [5]): 0
- Efficacy SD (Hodgkin's disease; [5]): 0
- Efficacy CR (Hodgkin's disease; Chemo-naïve Total, 0 patients): 0
- Efficacy MR (Hodgkin's disease; Chemo-naïve Total, 0 patients): 0
- Efficacy PD (Hodgkin's disease; Chemo-naïve Total, 0 patients): 0
- Efficacy PR (Hodgkin's disease; Chemo-naïve Total, 0 patients): 0
- Efficacy SD (Hodgkin's disease; Chemo-naïve Total, 0 patients): 0
- Efficacy CR (Hodgkin's disease; Chemo-refractory, 6 patients): 0
- Efficacy MR (Hodgkin's disease; Chemo-refractory, 6 patients): 0
- Efficacy PD (Hodgkin's disease; Chemo-refractory, 6 patients): 1
- Efficacy PR (Hodgkin's disease; Chemo-refractory, 6 patients): 0
- Efficacy SD (Hodgkin's disease; Chemo-refractory, 6 patients): 5
